Experimental data: US20140105915A1 (GlaxoSmithKline, published 2014)

T1: human BCMA on cells (human, UniProt Q02223 1-184)
T1 construct: whole, on cells; One molecule for all cell lines; the cell line is named under assay; also called human BCMA HEK293; ARH77-hBCMA 10B5 BCMA expressing transfectant cells
T1 sequence (looked up): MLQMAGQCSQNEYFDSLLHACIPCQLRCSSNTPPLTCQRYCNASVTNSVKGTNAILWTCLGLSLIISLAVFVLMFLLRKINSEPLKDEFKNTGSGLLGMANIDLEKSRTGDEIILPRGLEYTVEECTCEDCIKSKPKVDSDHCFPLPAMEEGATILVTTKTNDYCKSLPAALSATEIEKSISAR

T2: recombinant human BCMA (in house) (human, UniProt Q02223 4-53, limits assumed)
T2 construct: Analyte in the ProteOn runs; also called Human in house BCMA; In house human BCMA
T2 chain (looked up): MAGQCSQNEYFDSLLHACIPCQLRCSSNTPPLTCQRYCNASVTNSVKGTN


What was measured:
[1] = target: T3, cyno BCMA on HEK293 cells (cyno, UniProt A0A2K5UD97 1-183); assay: FMAT, HEK293 cells transfected with cyno BCMA, anti-human IgG FMAT Blue detection
T3 construct: whole, on cells; also called cyno BCMA HEK293
T3 sequence (A0A2K5UD97 entry or part of it): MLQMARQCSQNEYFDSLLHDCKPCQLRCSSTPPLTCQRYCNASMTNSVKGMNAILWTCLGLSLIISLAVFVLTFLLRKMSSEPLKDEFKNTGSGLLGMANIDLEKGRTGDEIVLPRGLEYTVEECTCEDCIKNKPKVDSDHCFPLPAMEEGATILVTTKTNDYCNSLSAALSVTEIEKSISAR
Experimental: (§1) Cryopreserved transfected human, cyno BCMA and mock transfected HEK293 cells were recovered from LN2 storage. […] The assay plates were left for a minimum of 90 minutes before the result was read on the AB18200 (FMAT) plate reader.

[2] = target: T1, human BCMA on cells; assay: FMAT, HEK293 cells transfected with human BCMA, anti-human IgG FMAT Blue detection
Experimental: as §1

[3] = target: T1, human BCMA on cells; assay: cell-based or functional assay
[4] = target: T4, recombinant human BCMA Fc 4-53 (human); assay: competition ELISA, coated recombinant human BCMA Fc 4-53, blocked ligand recombinant human BAFF (6 ng/mL), biotinylated anti-BAFF detection [A]
T4 construct: also called CD33-hBCMA ECD (4-53) TEV-Fc; recombinant BCMA coated on an ELISA plate
Experimental: 96 well flat bottomed plates were coated overnight with 1 μg/mL solution of recombinant human BCMA Fc 4-53 in PBS. Following a wash step using 0.05% TWEEN20, plates were blocked with 2% Bovine Serum Albumin solution in PBS for 1 hour at room temperature. […] 40 μL of 2% BSA was added to the relevant control wells. […] Equivalent volume of 2% BSA was added to the relevant control wells. Plates were allowed to incubate for 2 hours at room temperature, after which they were washed as before. […] Following a wash step, 50 μL of a 1:4000 dilution of Streptavidin-HRP (Amersham RPN4401) was added to each well and incubated for 30 minutes at room temperature. The wash process was repeated again followed by the addition of 100 μL of Tetramethylbenzidine substrate solution (T8665, Sigma) into each well. Plates were incubated for 20-25 minutes at room temperature, wrapped in foil. The reaction was stopped with the addition of 100 μL of 1M H₂SO₄. Optical density was determined at 450 nm using Spectromax reader.

[5] = target: T2, recombinant human BCMA (in house); assay: SPR ProteOn XPR36, mAb captured on Protein A, 25C, run 2
Experimental: The initial screen of CA8 chimeric and humanised variants was carried out on the ProteOn XPR36 (Biorad). The method was as follows; Protein A was immobilised on a GLC chip (Biorad, Cat No: 176-5011) by primary amine coupling, CA8 variants were then captured on this surface and recombinant human BCMA (in house or commercial US Biological, B0410) materials (run 2 only)) passed over at 256, 64, 16, 4, 1 nM with a OnM injection (i.e. buffer alone) used to double reference the binding curves, the buffer used is the HBS-EP buffer. 50 mM NaOH was used to regenerate the capture surface. The data was fitted to the 1:1 model using the analysis software inherent to the ProteOn XPR36. […] Both runs were carried out at 25° C.

[6] = target: T2, recombinant human BCMA (in house); assay: SPR ProteOn XPR36, mAb captured on Protein A, 25C, run 1

Row | Binder | binding result [5] | further results
1 | CA8 chimera (antibody, V domains shown, also called chimeric CA8; human chimeric CA8) VH: EVQLQQSGAVLARPGASVKMSCKGSGYTFTNYWMHWVKQRPGQGLEWIGATYRGHSDTYYNQKFKGKAKLTAVTSTSTAYMELSSLTNEDSAVYYCTRGAIYNGYDVLDNWGQGTLVTVSS VL: DIQLTQTTSSLSASLGDRVTISCSASQDISNYLNWYQQKPDGTVELVIYYTSNLHSGVPSRFSGSGSGTDYSLTIGYLEPEDVATYYCQQYRKLPWTFGGGSKLEIKR |  | EC50 (read off the curve) [1]: ~0.3 µg/mL; EC50 (read off the curve) [2]: ~0.4 µg/mL
2 | J6M0 potelligent (antibody, human IgG1, kappa, V domains shown, afucosylated (Potelligent) Fc glycan, Same chains as J6M0, made in FUT8-deficient cells (afucosylated); human IgG1/kappa; also called J6M0 potelligent version; afucosylated (Potelligent) J6M0) VH: QVQLVQSGAEVKKPGSSVKVSCKASGGTFSNYWMHWVRQAPGQGLEWMGATYRGHSDTYYNQKFKGRVTITADKSTSTAYMELSSLRSEDTAVYYCARGAIYDGYDVLDNWGQGTLVTVSS VL: DIQMTQSPSSLSASVGDRVTITCSASQDISNYLNWYQQKPGKAPKLLIYYTSNLHSGVPSRFSGSGSGTDFTLTISSLQPEDFATYYCQQYRKLPWTFGQGTKLEIKR |  | IC50 for inhibition of APRIL signalling (phosphorylated NFkappaB in washed H-929 cells, MSD assay) [3]: 2.43 µg/mL; IC50 for inhibition of BAFF signalling (phosphorylated NFkappaB in washed H-929 cells, MSD assay) [3]: 0.91 µg/mL; IC50 (read off the curve) [4]: ~0.8 µg/mL
3 | CA8 humanised J8M1 (antibody, human IgG1, kappa, V domains shown, humanised, human IgG1/kappa) VH: QVQLVQSGAEVKKPGSSVKVSCKASGYTFTNYWMHWVRQAPGQGLEWMGATYRGHSDTYYNQKFKGRVTITADKSTSTAYMELSSLRSEDTAVYYCTRGAIYDGYDVLDNWGQGTLVTVSS VL: DIQMTQSPSSLSASVGDRVTITCSASQDISNYLNWYQQKPGKAPKLLIYYTSNLHSGVPSRFSGSGSGTDYTLTISSLQPEDFATYYCQQYRKLPWTFGQGTKLEIKR | binds | 
4 | CA8 humanised J7M1 (antibody, human IgG1, kappa, V domains shown, humanised, human IgG1/kappa) VH: QVQLVQSGAEVKKPGSSVKVSCKASGYTFTNYWMHWVRQAPGQGLEWMGATYRGHSDTYYNQKFKGRVTITADKSTSTAYMELSSLRSEDTAVYYCARGAIYDGYDVLDNWGQGTLVTVSS VL: DIQMTQSPSSLSASVGDRVTITCSASQDISNYLNWYQQKPGKAPKLLIYYTSNLHSGVPSRFSGSGSGTDYTLTISSLQPEDFATYYCQQYRKLPWTFGQGTKLEIKR | binds | 
5 | CA8 humanised J6M0 (antibody, human IgG1, kappa, V domains shown, humanised, human IgG1/kappa; also called CA8 J6M0; humanised J6M0 (wild type)) VH: QVQLVQSGAEVKKPGSSVKVSCKASGGTFSNYWMHWVRQAPGQGLEWMGATYRGHSDTYYNQKFKGRVTITADKSTSTAYMELSSLRSEDTAVYYCARGAIYDGYDVLDNWGQGTLVTVSS VL: DIQMTQSPSSLSASVGDRVTITCSASQDISNYLNWYQQKPGKAPKLLIYYTSNLHSGVPSRFSGSGSGTDFTLTISSLQPEDFATYYCQQYRKLPWTFGQGTKLEIKR |  | IC50 (read off the curve) [4]: ~0.8 µg/mL
6 | CA8 humanised J7M0 (antibody, human IgG1, kappa, V domains shown, humanised, human IgG1/kappa) VH: QVQLVQSGAEVKKPGSSVKVSCKASGYTFTNYWMHWVRQAPGQGLEWMGATYRGHSDTYYNQKFKGRVTITADKSTSTAYMELSSLRSEDTAVYYCARGAIYDGYDVLDNWGQGTLVTVSS VL: DIQMTQSPSSLSASVGDRVTITCSASQDISNYLNWYQQKPGKAPKLLIYYTSNLHSGVPSRFSGSGSGTDFTLTISSLQPEDFATYYCQQYRKLPWTFGQGTKLEIKR | binds | 
7 | S307118G03 humanised H4L1 (antibody, human IgG1, kappa, V domains shown, humanised, human IgG1/kappa) VH: QVQLVQSGAEVKKPGSSVKVSCKASGYTFTDYYMKWVRQAPGQGLEWMGEIYPNNGGITYNQKFKGRVTITADKSTSTAYMELSSLRSEDTAVYYCADGYEFVYWGQGTLVTVSS VL: DIQMTQSPSSLSASVGDRVTITCSASQGISNYLNWYQQKPGKAPKLLIYYTSSLHSGVPSRFSGSGSGTDYTLTISSLQPEDFATYYCQQYSKLPWTFGQGTKLEIKR |  | binding result [6]: no binding (tested: 256 nM (highest analyte concentration))
8 | CA8 humanised J9M2 (antibody, human IgG1, kappa, V domains shown, humanised, human IgG1/kappa) VH: QVQLVQSGAEVKKPGSSVKVSCKGSGYTFTNYWMHWVRQAPGQGLEWIGATYRGHSDTYYNQKFKGRATLTADTSTSTAYMELSSLRSEDTAVYYCTRGAIYDGYDVLDNWGQGTLVTVSS VL: DIQLTQSPSSLSASVGDRVTITCSASQDISNYLNWYQQKPGKAPELVIYYTSNLHSGVPSRFSGSGSGTDYTLTISSLQPEDFATYYCQQYRKLPWTFGQGTKLEIKR | binds | 
9 | CA8 humanised J7M2 (antibody, human IgG1, kappa, V domains shown, humanised, human IgG1/kappa) VH: QVQLVQSGAEVKKPGSSVKVSCKASGYTFTNYWMHWVRQAPGQGLEWMGATYRGHSDTYYNQKFKGRVTITADKSTSTAYMELSSLRSEDTAVYYCARGAIYDGYDVLDNWGQGTLVTVSS VL: DIQLTQSPSSLSASVGDRVTITCSASQDISNYLNWYQQKPGKAPELVIYYTSNLHSGVPSRFSGSGSGTDYTLTISSLQPEDFATYYCQQYRKLPWTFGQGTKLEIKR | binds | 
10 | CA8 humanised J8M2 (antibody, human IgG1, kappa, V domains shown, humanised, human IgG1/kappa) VH: QVQLVQSGAEVKKPGSSVKVSCKASGYTFTNYWMHWVRQAPGQGLEWMGATYRGHSDTYYNQKFKGRVTITADKSTSTAYMELSSLRSEDTAVYYCTRGAIYDGYDVLDNWGQGTLVTVSS VL: DIQLTQSPSSLSASVGDRVTITCSASQDISNYLNWYQQKPGKAPELVIYYTSNLHSGVPSRFSGSGSGTDYTLTISSLQPEDFATYYCQQYRKLPWTFGQGTKLEIKR | binds | 
11 | CA8 humanised J8M0 (antibody, human IgG1, kappa, V domains shown, humanised, human IgG1/kappa) VH: QVQLVQSGAEVKKPGSSVKVSCKASGYTFTNYWMHWVRQAPGQGLEWMGATYRGHSDTYYNQKFKGRVTITADKSTSTAYMELSSLRSEDTAVYYCTRGAIYDGYDVLDNWGQGTLVTVSS VL: DIQMTQSPSSLSASVGDRVTITCSASQDISNYLNWYQQKPGKAPKLLIYYTSNLHSGVPSRFSGSGSGTDFTLTISSLQPEDFATYYCQQYRKLPWTFGQGTKLEIKR | binds | 
